Assay [1] deals with ΔEGF/Lam_Celsr3 (Celsr3-Flag lacking all the EGF repeats and Laminin domains) (mouse) (UniProt Q91ZI0). The assay can be described thus: co-IP.
In assay [2] the target is ΔLaminin G1_Celsr3 (Celsr3-Flag lacking the Laminin G1 domain) (mouse) (UniProt Q91ZI0). As to the kind of experiment: co-IP.

B1: mouse Frizzled3 (Frizzled3-HA) (receptor)
chain: HSLFSCEPITLRMCQDLPYNTTFMPNLLNHYDQQTAALAMEPFHPMVNLDCSRDFRPFLCALYAPICMEYGRVTLPCRRLCQRAYSECSKLMEMFGVPWPEDMECSRFPDCDEPYPRLVDLNLVGDPTEGAPVAVQRDYGFWCPRELKIDPDLGYSFLHVRDCSPPCPNMYFRREELSFARYFIGLISIICLSATLFTFLTFLIDVTRFRYPERPIIFYAVCYMMVSLIFFIGFLLEDRVACNASSPAQYKASTVTQGSHNKACTMLFMVLYFFTMAGSVWWVILTITWFLAAVPKWGSEAIEKKALLFHASAWGIPGTLTIILLAMNKIEGDNISGVCFVGLYDVDALRYFVLAPLCLYVVVGVSLLLAGIISLNRVRIEIPLEKENQDKLVKFMIRIGVFSILYLVPLLVVIGCYFYEQAYRGIWETTWIQERCREYHIPCPYQVTQMSRPDLILFLMKYLMALIVGIPSIFWVGSKKTCFEWASFFHGRRKKEIVNESRQVLQEPDFAQSLLRDPNTPIIRKSRGTSTQGTSTHASSTQLAMVDDQRSKAGSVHSKVSSYHGSLHRSRDGRYTPCSYRGMEERLPHGSMSRLTDHSRHSSSHRLNEQSRHSSIRDLSNNPMTHITHGTSMNRVIEEDGTSA
As for B1, the percent reduction of the interaction against wild type Celsr3 in assay [1] amounted to 68%; in assay [2] it was 66%.
